Source: the RNAGym collection of RNA variant scans (doi:10.7554/elife.90254)

B1: LINE1-mini (parent)
chain: GGCAGAGCUCAACACAGCGUGGCAAAGUGGCUGUGGCUAGACUGCC

Variants of: B1
Test: self-cleavage, relative activity (ratio to wild type); higher = more cleavage; in vitro, sequencing; the parent is a self-cleaving ribozyme

Point of comparison: G5A G35U, self-cleavage 0.26. Against it:
- G5A C23A — lower, 0.14
- G5A C23U — lower, 0.14
- A4U C18U — lower, 0.11
- A4U C18G — lower, 0.08
- A4U C18A — lower, 0.07
- G5A C10A — lower, 0.04
- G5A C10G — lower, 0.03
- G5A C10U — lower, 0.09
- A4U C15A — lower, 0.08
- A4U C15U — lower, 0.19
- A4U C15G — lower, 0.06
- A4G G7C — lower, 0.15
- A4G G7U — lower, 0.18
- A4G G7A — lower, 0.25
- A4U G21A — higher, 0.48
- A4U G21C — lower, 0.24
- A4U G21U — higher, 0.35
- A4G G17A — lower, 0.06
- A4G G17U — lower, 0.18
- A4G G17C — higher, 0.5
- A4G G36C — lower, 0.16
- A4G G36A — higher, 0.54
- A4G G36U — lower, 0.09
- A4G C18A — higher, 0.31
- A4G C18U — higher, 0.55
- A4G C18G — lower, 0.16
- A4G C45U — higher, 0.6
- A4G C45G — higher, 0.37
- A4G C45A — higher, 0.45
- G5A G19U — lower, 0.11
- G5A G19C — lower, 0.06
- G5A G19A — higher, 0.29
- A4U G17C — lower, 0.06
- A4U G17A — lower, 0.06
- A4U G17U — lower, 0.16
- G5A A14C — lower, 0.09
- G5A A14U — lower, 0.1
- G5A A14G — lower, 0.13
- A4U A16C — lower, 0.19
- A4U A16U — lower, 0.15
- A4U A16G — lower, 0.12
- G5A A41G — lower, 0.04
- G5A A41C — lower, 0.06
- G5A A41U — lower, 0.08
- A4U C8G — lower, 0.09
- A4U C8A — lower, 0.23
- A4U C8U — the same, 0.26
- A4G A24U — higher, 1.02
- A4G A24G — higher, 1.09
- G5A G35A — lower, 0.1
- G5A G35C — lower, 0.08
- A4U U38G — lower, 0.03
- A4U U38C — lower, 0.17
- A4U U38A — lower, 0.12
- G5A G29C — lower, 0.07
- G5A G29U — lower, 0.13
- G5A G29A — lower, 0.1
- A4U A11U — lower, 0.04
- A4U A11G — lower, 0.04
- A4U A11C — lower, 0.04
- G5A A26U — lower, 0.19
- G5A A26G — lower, 0.1
- G5A A26C — lower, 0.18
- A4U A39U — lower, 0.11
- A4U A39G — lower, 0.07
- A4U A39C — higher, 0.27
- G5A C42G — lower, 0.07
- G5A C42U — higher, 1.53
- G5A C42A — lower, 0.13
- G5A C13G — lower, 0.08
- G5A C13U — lower, 0.15
- G5A C13A — lower, 0.15
- A4G G44A — higher, 0.48
- A4G G44U — lower, 0.16
- A4G G44C — lower, 0.08
- G5A A16U — lower, 0.07
- G5A A16G — lower, 0.07
- G5A A16C — lower, 0.1
- G5A C46A — lower, 0.11
- G5A C46U — lower, 0.12
- G5A C46G — lower, 0.16
- G5A G17U — lower, 0.11
- G5A G17A — lower, 0.08
- G5A G17C — higher, 0.39
- A4G U38G — lower, 0.04
- A4G U38A — lower, 0.23
- A4G U38C — higher, 0.31
- A4U C10U — lower, 0.19
- A4U C10A — lower, 0.04
- A4U C10G — lower, 0.06
- A4G G19C — lower, 0.23
- A4G G19A — higher, 0.95
- A4G G19U — higher, 0.56
- A4U A24U — lower, 0.21
- A4U A24C — higher, 0.4
- A4U A24G — the same, 0.26
- A4G G40A — lower, 0.13
- A4G G40U — lower, 0.15
- A4G G40C — lower, 0.1
- A4U A26U — lower, 0.2
- A4U A26G — lower, 0.14
- A4U A26C — lower, 0.14
- A4G C37U — lower, 0.13
- A4G C37G — lower, 0.07
- A4G C37A — lower, 0.06
- A4G G33U — lower, 0.16
- A4G G33C — lower, 0.07
- A4G G33A — lower, 0.12
- A4U C46U — lower, 0.19
- A4U C46G — lower, 0.12
- A4U C46A — lower, 0.16
- G5A G22A — lower, 0.18
- G5A G22C — lower, 0.13
- G5A G22U — lower, 0.14
- A4G A25G — higher, 0.36
- A4G A25C — higher, 0.78
- A4G A25U — higher, 0.62
- A4U G33A — lower, 0.07
- A4U G33C — lower, 0.09
- A4U G33U — lower, 0.12
- A4G C31G — higher, 0.31
- A4G C31U — lower, 0.14
- A4G C31A — lower, 0.12
- A4G U20A — lower, 0.19
- A4G U20C — higher, 0.48
- A4G U20G — lower, 0.23
- A4G U43A — lower, 0.12
- A4G U43C — higher, 1.34
- A4G U43G — higher, 1.35
- A4U A14U — lower, 0.1
- A4U A14C — lower, 0.12
- A4U A14G — lower, 0.15
- A4U C31G — lower, 0.05
- A4U C31A — lower, 0.05
- A4U C31U — lower, 0.1
- G5A G7U — the same, 0.26
- G5A G7A — higher, 0.35
- G5A G7C — lower, 0.23
- G5A A6U — lower, 0.12
- G5A A6C — lower, 0.2
- G5A A6G — lower, 0.13
- G5A G36A — higher, 0.28
- G5A G36C — lower, 0.05
- G5A G36U — lower, 0.14
- A4U C45G — lower, 0.15
- A4U C45A — lower, 0.1
- A4U C45U — lower, 0.16
- A4U G22C — lower, 0.08
- A4U G22A — lower, 0.16
- A4U G22U — higher, 0.52
- A4U — higher, 0.29
- A4G C10A — lower, 0.06
- A4G C10G — lower, 0.05
- A4G C10U — lower, 0.22
- A4G A26G — higher, 0.48
- A4G A26C — higher, 0.63
- A4G A26U — higher, 0.39
- A4U A6C — lower, 0.06
- A4U A6U — lower, 0.13
- A4U A6G — lower, 0.16
- A4G U9G — lower, 0.23
- A4G U9C — lower, 0.02
- A4G U9A — lower, 0.21
- G5A A25C — lower, 0.07
- G5A A25G — lower, 0.14
- G5A A25U — lower, 0.12
